The record followed here is PMC212687.

For the data set, the target named is RAG1;RAG2;HMG (HMG-1/2) (;;) (UniProt P15919+P21784). Kind of data set: EMSA. The settings on record: Standard gel shift, conditions as in Fugmann et al. 2000b (not given in the material), three experiments. In general terms: A gel shift assay detects complexes by their altered migration in electrophoresis.

As to “GATCTGGCCTGGTCTGCACAACCCTGTGACTCCCAAGAGAAACCTGCACTCGAGCGGAG (double strand) [Jβ2.6 12-RSS]”, the binding signal (relative to Jβ2.2) (about 2-fold reduced) amounted to 0.5.

Take “GATCTGGCCTGGTTTGCACAGTCCTGGAAATGCTGGCACAAACCTGCACTCGAGCGGAG (double strand) [Jβ2.2 12-RSS]”: the binding signal (relative to Jβ2.2) was 1.

In the case of “GATCTGGCCTGGTCTGCACAGTGCAGATCTAGGAGACAAAAACCTGCACTCGAGCGGAG (double strand) [H-Sac-N]”, the binding signal (relative to H-Sc-N) (about 3-fold reduced vs H-Sc-N) is 0.33.

Regarding “GATCTGGCCTGGTCTGCACAACCCTGTGACTCCCAACAAAAACCTGCACTCGAGCGGAG (double strand) [N (Jβ2.6 with consensus nonamer)]”, the binding signal (relative to Jβ2.2) (up to level of Jβ2.2) amounted to 1.
